Measured values from publication PMC9896144, “A “grappling hook” interaction connects self-assembly and chaperone activity of Nucleophosmin 1” (PNAS Nexus, 2023).
“And” between values parts separate entries of the source, which are not always exact repeats. Equal values may be shown once. One block for each molecule: values may come before it.

B1: NPM1_(188), the NTD and the acidic regions of the IDR of NPM1 (domain or fragment, human, UniProt P06748 1-188, looked up)
chain: MEDSMDMDMSPLRPQNYLFGCELKADKDYHFKVDNDENEHQLSLRTVSLGAGAKDELHIVEAEAMNYEGSPIKVTLATLKMSVQPTVSLGGFEITPPVVLRLKCGSGPVHISGQHLVAVEEDAESEDEEEEDVKLLSISGKRSAPGGGSKVPQKKVKLAADEDDDDDDEEDDDEDDDDDDFDDEEAEE
notes: Nucleophosmin 1, human, NTD and acidic tracts A1-3, C-terminally truncated at residue 188; exact construct and tags are in the supplementary methods; Mostly pentameric; also called NPM188; source: produced by the authors
B2: rpL5_(21-37), residues 21 to 37 of ribosomal protein L5 (peptide, UniProt P46777 21-37, looked up)
peptide: RRRREGKTDYYARKRLV
notes: ribosomal protein L5 (rpL5), residues 21 to 37, with two basic motifs; printed mass 2.2 kDa; also called rpL5 peptide; rpL5_(12-37)
B3: NPM1AML, NPM1 variant with an AML mutation at the C-terminus (natural protein, human, UniProt P06748 1-294, looked up)
chain: MEDSMDMDMSPLRPQNYLFGCELKADKDYHFKVDNDENEHQLSLRTVSLGAGAKDELHIVEAEAMNYEGSPIKVTLATLKMSVQPTVSLGGFEITPPVVLRLKCGSGPVHISGQHLVAVEEDAESEDEEEEDVKLLSISGKRSAPGGGSKVPQKKVKLAADEDDDDDDEEDDDEDDDDDDFDDEEAEEKAPVKKSIRDTPAKNAQKSNQNGKDSKPSSTPRSKGQESFKKQEKTPKTPKGPSSVEDIKAKMQASIEKGGSLPKVEAKFINYVKNCFRMTDQEAIQDLCLAVEEVSLRK
notes: Compared directly with FL NPM1, so most likely the whole protein with the changed C-terminus; also called AML variant; source: purified by the authors
B4: NPM1_(120), the N-terminal pentamerization domain (NTD) of NPM1 (domain or fragment, human, UniProt P06748 1-120, looked up)
chain: MEDSMDMDMSPLRPQNYLFGCELKADKDYHFKVDNDENEHQLSLRTVSLGAGAKDELHIVEAEAMNYEGSPIKVTLATLKMSVQPTVSLGGFEITPPVVLRLKCGSGPVHISGQHLVAVE
notes: Nucleophosmin 1, human, NTD with the A1 tract, residues 1 to 120; exact construct and tags are in the supplementary methods; also called NPM120; isolated NTD; source: produced by the authors

Tests used:
[1] = target: NPM1_(ΔIDR), NPM1 variant in which NTD and CTD are linked without the IDR (human) (UniProt P06748); test: native MS; each NPM1 variant alone; nESI with collision-induced dissociation, collision voltages 25 to 75 V
[2] = target: the molecule itself; test: as above
[3] = target: T1, Full-length (FL) Nucleophosmin 1 (human, UniProt P06748 1-294); test: native MS; NPM1_120 or FL NPM1 in the presence of the rpL5_21-37 peptide; collisional activation; conditions: both partners purified
T1 construct: Forms pentamers that assemble into large oligomers without defined stoichiometry; PDB 8AS5 models only the N-terminal core; also called NPM1; FL NPM1; source: produced by the authors

[4] = target: B4; test: as above; conditions: both partners purified
[5] = target: the molecule itself; test: as above

- stoichiometry N [1]: 5 and 10
Molecule: NPM1_(ΔIDR), NPM1 variant in which NTD and CTD are linked without the IDR (from UniProt P06748 1-120; P06748 240-294)

Molecule: B1
- stoichiometry N [2]: 5 and 10

Molecule: B2
- binding result [3]: binds
- binding result [4]: binds

Molecule: B3
- binding result [2]: binds

Molecule: B4
- stoichiometry N [5]: ≥ 25 subunits
- stoichiometry N [2]: 10
